Laboratory results taken from publication PMC3406085.

Biological target: Merkel cell polyomavirus (MCPyV) major capsid protein VP1, amino acids 38-320, unassembled pentamer (Merkel cell polyomavirus (w162))
Test: crystal structure; unassembled VP1 pentamers, native and soaked with DSL, 3SLN or GD1a; hanging drop at 20°C, 100 mM sodium cacodylate pH 6.5, 6% PEG 3,350, 300 mM magnesium chloride; four VP1 pentamers in the asymmetric unit

Substance: Merkel cell polyomavirus (MCPyV) major capsid protein VP1, amino acids 38-320, unassembled pentamer (domain or fragment)
- stoichiometry N: 5
